Assay results published in patent CN116253795A (SUN YAT SEN UNIV CANCER CENTER SUN YAT SEN UNIV AFFILIATED …, dated 2023).

Key:
[1] = biological target: T1, gHgL胞外域全长蛋白 (recombinant single-chain EBV gL-linker-gH ectodomain with 6xHis, SEQ ID NO.12) (Epstein-Barr virus, M81 strain …); assay: ELISA, gHgL protein coated at 2 ug/mL, antibody titrated
T1 construct: not shown: 6xHis tag

[2] = biological target: T2, P9肽 (biotinylated 20-mer peptide of gL, aa 104-123) (Epstein-Barr virus, M81 strain, N-terminal biotin); assay: ELISA, biotinylated peptide on streptavidin plate, antibody 1 ug/mL
T2 peptide: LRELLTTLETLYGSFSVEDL

[3] = biological target: T1, gHgL胞外域全长蛋白 (recombinant single-chain …); assay: SPR, Biacore 8K, antibody captured on Protein A chip, gHgL as analyte 3.125-200 nM

B1: 兔源单克隆抗体10E4 (rabbit monoclonal antibody 10E4) (antibody, V domains shown)
VH: QQVKESGGRLVTPGTPLTLTCTASGFSLSTYWMSWVRQAPGKGLEYIGVIGGSGSTYYASWAKGRFTISKTSTTVDLKITSPTTEDTATYFCARDSGAGVRFRFWGPGTLVTVSS
VL: DLVMTQTPASVEAGVGGTVTINCQASENIGSRLAWYQQKPGQPPKLLIYRASTLESGVPSRFKGSGSGTEFTLTISDLECADAATYYCQCTYGVSITINYGNDFGGGTEVVVKG
notes: also called 单抗10E4
B1 was tested, and the EC50 [1] was 0.0335 µg/mL, the binding result [2] was “binds” and the Kd [3] was 3.53 nM.
